Measured values reported in PMC12680046.

Assays:
[1] = biological target: mCherry-BICD2N-EGFR (Ex19Del/T790M/C797S)-HomoFC
[2] = biological target: mCherry-BICD2N-EGFR (Ex19Del/T790M/C797S)-HomoFC; assay: split reporter
[3] = biological target: mCherry-EGFR (L858R/T790M)-HomoFC (UniProt P00533); assay: split reporter

Substance | C/N ERK-KTR ratio after EGF stimulation [1] | HomoFC/mCherry ratio (EGF) [2] | fold lower oligomer signal than WT EGFR at the basal level [2] [fold] | fold reduction of the oligomer signal against the nonfused mutant [2] [fold] | percent reduction of EGFR oligomerization (HomoFC) [3] [%]
mCherry-BICD2N-EGFR (Ex19Del/T790M/C797S)-HomoFC (from UniProt Q8TD16;P00533) (receptor) | 0.64 | 0.12 | 3.3 | 18.8 | 
YFP–DARPin (E69)–BICD2N (from UniProt Q8TD16 1-594) (designed binder) |  |  |  |  | 50
